In patent publication US20110035817A1 (YEDA RESEARCH AND DEVELOPMENT, published 2011):

Molecular target: T1, myc-NIK (wild-type NIK fused N-terminally to a six myc tag) (UniProt Q99558 1-947)
T1 construct: pCS3MTNIK expression vector, co-transfected into HEK-293T cells; also called NF-κB-inducing kinase; MAP3K14; not shown: six myc tag at the N-terminus
Experiment: co-immunoprecipitation from HEK-293T lysate: NIK immunoprecipitated with anti-NIK antibody, co-precipitated SIVA detected by Western blot
Method: FLAG-SIVA2 or FLAG-SIVA3 expression vectors were co-transfected with NIK expression vector into HEK-293T cells. 24 h later, cells were lysed, NIK was immunoprecipitated with anti-NIK antibody and co-precipitated SIVA was monitored by western Blotting. WB=Western Blot, TLC=Total cell lysate, IP=immunoprecipitation.
Next, it was explored whether SIVA3 binds NIK. FLAG-SIVA2 (8 μg) or FLAG-SIVA3 (8 μg) were co-transfected with myc-NIK (7 μg) into HEK-293T cells (1.5×10⁶ seeded in 90 mm plate, transfected using calcium phosphate method). 24 h later, cells were lysed, NIK was immunoprecipitated with anti-NIK antibody and co-precipitated SIVA was detected by western Blotting.

T1 sequence (Q99558 whole entry, the tested form may be a part): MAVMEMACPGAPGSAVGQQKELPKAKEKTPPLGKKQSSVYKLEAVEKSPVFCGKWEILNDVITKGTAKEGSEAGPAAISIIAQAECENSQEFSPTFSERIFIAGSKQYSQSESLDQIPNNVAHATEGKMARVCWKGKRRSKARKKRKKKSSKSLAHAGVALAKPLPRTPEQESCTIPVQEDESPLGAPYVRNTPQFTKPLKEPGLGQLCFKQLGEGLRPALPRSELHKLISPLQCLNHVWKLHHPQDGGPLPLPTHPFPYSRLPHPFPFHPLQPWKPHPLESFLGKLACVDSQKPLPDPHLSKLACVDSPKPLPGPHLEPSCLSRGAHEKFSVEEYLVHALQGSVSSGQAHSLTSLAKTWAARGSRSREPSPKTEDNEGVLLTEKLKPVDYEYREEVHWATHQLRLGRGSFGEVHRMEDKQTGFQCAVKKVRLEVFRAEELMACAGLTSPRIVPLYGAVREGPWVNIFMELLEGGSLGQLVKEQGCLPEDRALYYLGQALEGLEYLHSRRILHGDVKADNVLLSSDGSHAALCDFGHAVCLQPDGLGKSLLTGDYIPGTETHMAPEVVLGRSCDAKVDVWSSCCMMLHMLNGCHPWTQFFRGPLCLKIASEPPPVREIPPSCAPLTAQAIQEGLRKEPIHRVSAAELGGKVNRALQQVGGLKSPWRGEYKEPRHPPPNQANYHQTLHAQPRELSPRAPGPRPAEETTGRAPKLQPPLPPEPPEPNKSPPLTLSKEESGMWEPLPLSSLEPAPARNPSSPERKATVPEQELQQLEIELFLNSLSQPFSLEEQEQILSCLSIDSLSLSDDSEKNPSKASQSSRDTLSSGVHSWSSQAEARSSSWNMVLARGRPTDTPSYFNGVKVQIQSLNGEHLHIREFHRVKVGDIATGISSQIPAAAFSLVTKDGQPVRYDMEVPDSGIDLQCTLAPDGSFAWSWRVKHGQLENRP

B1: FLAG-SIVA3 (other)
chain: MPKRSCPFADVAPLQLKVRVSQRELSRGVCAERYSQEVFAAVTCTRKCCAPAVPCSRPEAGSSRLPSPGATPCMAAFPGRALGVHTELWGRREGCLLHVLFCILMTE
notes: Expressed from pcDNA3 in HEK-293T cells and tested in lysate by co-immunoprecipitation; not shown: FLAG tag
Q: Does B1 bind?
A: Result: no binding
